The source of these data is US20260265403A1 (TJ BIOPHARMA SHANGHAI, published 2026).

The target of test [1] is T1, human CD24 on cells (human, UniProt P25063 27-59).
T1 construct: whole, on cells; One molecule for all cell lines; the cell line is named under assay or readout; also called cell surface CD24; cell-based CD24
T1 chain (looked up): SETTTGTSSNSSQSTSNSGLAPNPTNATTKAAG
The experiment in a line: flow cytometry (MFI), NALM6 cells [Cont'd) B]. For orientation: In flow cytometry, cells or beads pass a laser one at a time.

Test [2] has as its target T1, human CD24 on cells. The experiment in a line: cell-based or functional assay.
Test [3] deals with T1, human CD24 on cells. The experiment in a line: flow cytometry (MFI), MCF-7 cells [Cont'd) B].
The target of test [4] is T2, CD24-his protein (human, UniProt P25063 27-59, posttranslational modification (purified from mammalian cell)).
T2 construct: Purified from mammalian (HEK293) cells; also called soluble recombinant CD24 protein; human HEK293 purified CD24-his protein; not shown: His tag
T2 chain (looked up): T1 chain (looked up)
The experiment in a line: standard ELISA on CD24-his. From the text:
(§1) Since human CD24 contains only 33 core amino acids, and is heavily glycosylated, two different proteins were used to perform protein binding assay. CD24-his protein was purified from mammalian cell and as modified by posttranslational modification. While CD24-GST was purified from E. coli with no PTM.
For orientation: In an ELISA, binding on a coated surface is turned into a signal by an enzyme label.

For test [5], the target named is T1, human CD24 on cells. The experiment in a line: flow cytometry (GMFI), OVCAR3 cells. Here is the method: (§2) Antibodies were 4-fold serially diluted from 40 μg/mL and incubated with MCF7 cells (panel A), OVCAR3 cells (panel B), A549 cells (panel C), and NALM6 cells (panel D) cells for 30 minutes at 4° C. in FACS buffer. Then, PE conjugated-anti-human IgG (H+L) antibody was added and incubated for another 30 minutes. After washing, geometric mean fluorescence intensity (GMFI) of PE was evaluated by FACS.
(§3) Here we used four CD24 highly expressed tumor cell lines MCF7 (breast cancer), OVCAR3 (ovarian cancer), A549 (lung cancer), and NALM6 ([…]).

Test [6] addresses T1, human CD24 on cells. The experiment in a line: flow cytometry (GMFI), NALM6 cells. The procedure: as §2, §3
For test [7], the target named is T2, CD24-his protein. The experiment in a line: ELISA, CD24-his (HEK 293), unit taken from the concentration axis.
From the text: as §1

The target of test [8] is T1, human CD24 on cells. The experiment in a line: flow cytometry (GMFI), A549 cells. The procedure:
as §2, §3

The target of test [9] is T1, human CD24 on cells. The experiment in a line: cell-based or functional assay.
The target of test [10] is T1, human CD24 on cells. The experiment in a line: flow cytometry on MCF7, OVCAR3, A549 and NALM6 cells. Here is the method:
as §2, §3

Test [11] concerns the target T1, human CD24 on cells. The experiment in a line: flow cytometry (GMFI), MCF-7 cells. The procedure:
as §2, §3

The target in test [12] is T1, human CD24 on cells. The experiment in a line: flow cytometry (GMFI), NALM6 cells.
Test [13] addresses T1, human CD24 on cells. The experiment in a line: flow cytometry (GMFI), MCF-7 cells.
For test [14], the target named is T2, CD24-his protein. The experiment in a line: ELISA, CD24-his(HEK 293) [Cont'd) B].
The target in test [15] is T1, human CD24 on cells. The experiment in a line: Siglec10-PE competition assay (GMFI); competitor Siglec-10; CD24 source not named on the sheet [Cont'd) D].
For another test, the target named is T3, Human CD24 (human, UniProt P25063 27-59, limits assumed).
T3 chain (looked up): T1 chain (looked up)
The experiment in a line: Biacore (SPR); antibody as ligand, human CD24 as analyte. (In general: In SPR one partner is held on a chip, and binding of the other changes the refractive index at the surface.)

The next test addresses T4, CD24-his-GST(Ecoli).
T4 construct: also called CD24-GST
T4 chain: T1 chain (looked up)
The experiment in a line: ELISA, CD24-his-GST(Ecoli) [Cont'd) B].

Test [16] concerns the target T1, human CD24 on cells. The experiment in a line: flow cytometry (GMFI), MCF-7 cells [Cont'd) C].
In test [17] the target is T1, human CD24 on cells. The experiment in a line: flow cytometry (GMFI), MC38-hCD24 cells [Cont'd) C].
The target of test [18] is T2, CD24-his protein. The experiment in a line: Siglec10-PE competition assay (gMFI on the sheet); legend: Siglec-10-his-Biotin mixed with the antibody, plate coated with CD24 protein. The procedure:
Samples were washed three times with washing buffer. And then signal was tested.
CD24-his protein was firstly coated in 96-well plate overnight.

Positions count from the first letter of the chain named.

B1: 85-D5A10 (4434), IgG4, Kappa (antibody, V domains shown)
VH: EVQLQQSGPELVKPGASVKISCKASGYEFTGYHMNWVKQSPEKSLEWIGEINPITSDKTFNQKFKAKATLTVDRSSSTAYMHLKSLTSDDSAVYYCARRDYGTSLDYWGQGTTLTVSS
VL: DVQITQSPSYLAASPGETITIYCRASKSISKYLAWYQEKPEKTIRLLIYAGSTLQSGIPSRFRGSGSGKDFTLTVSGLEPEDFAMYYCQQHNEYPITFGAGTKLELI
Regarding B1, the 50% effective concentration (EC50 (read off the curve)) (in general, the midpoint of the concentration-response curve) in the test with human CD24 on cells [1] is ~0.4 µg/mL. Also, in the test with human CD24 on cells [2], the “EC50 of Phagocytosis assay, IgG4, Kappa; HEK293-CD24” value (“EC50 … HEK293-CD24” below) came out at 0.42 µg/mL; the “EC50 of Phagocytosis assay, IgG4, Kappa; MCF-7” value (from here on “EC50 … MCF-7”) is 0.43 µg/mL; the “EC50 of Phagocytosis assay, IgG4, Kappa; NALM6” value (“EC50 … NALM6” for short) was 0.47 µg/mL; the “EC50 of Phagocytosis assay, IgG4, Kappa; OVCAR3” value (“EC50 … OVCAR3” for short) turned out to be 0.38 µg/mL. Moreover, in the test with human CD24 on cells [3], the concentration for a half-maximal effect (EC50 (read off the curve)) was ~0.4 µg/mL.

B2: 74-H4C6 (4451), IgG4, Kappa (antibody, V domains shown)
VH: B1 VH with E28D, A66S, H82Y, D89E
VL: B1 VL with I44N, Q55H, I107K
In the case of B2, the concentration giving a half-maximal response (EC50 (read off the curve)) with human CD24 on cells [1] was ~0.4 µg/mL. In the test with human CD24 on cells [2], the “EC50 … HEK293-CD24” value came out at 0.44 µg/mL; the “EC50 … MCF-7” value turned out to be 0.74 µg/mL; the “EC50 … NALM6” value was found to be 0.32 µg/mL; the “EC50 … OVCAR3” value was found to be 0.16 µg/mL.

B3: 89-E8C12 (4428), IgG4, Kappa (antibody, V domains shown)
VH: B1 VH with E28D, H33Y, V37M, D57H, K58N, D89E
VL: B1 VL with K69T, I96L, I107K
Turning to B3, the “EC50 (read off the curve)” value with human CD24 on cells [1] was ~0.5 µg/mL. Moreover, in the test with human CD24 on cells [2], the “EC50 … HEK293-CD24” value was determined as 0.43 µg/mL; the “EC50 … MCF-7” value stood at 0.96 µg/mL; the “EC50 … NALM6” value stood at 0.57 µg/mL; the “EC50 … OVCAR3” value amounted to 0.16 µg/mL.

B4: 4451HM15-IgG1-3A (antibody, V domains shown)
VH: QVQLVQSGAEVKKPGASVKVSCKASGYDFTGYHMGWVRQAPGQGLEWMGEINPITSDKYFNQKFKSRVTMTRDTSISTAYMELSRLRSDDTAVYYCARRDYGTSLDYWGQGTTVTVSS
VL: DIQLTQSPSFLSASVGDRVTITCRASASISKYLAWYQQKPGKAPKLLIYAGSTLHSGIPSRFRGSGSGTEFTLTISSLQPEDFATYYCQQHNEYPITFGQGTKLEIKR
notes: Produced in a CHO-based system
As to B4, the concentration giving a half-maximal response (EC50) (in general, the concentration at which the effect is half-maximal) was 10.1 µg/mL with CD24-his protein [4], 0.0101 µg/mL in the test with CD24-his protein [7] and 1.2 to 2.11 nM with human CD24 on cells [10]. Further, the “EC50 (read off the curve)” value is ~0.3 µg/mL with human CD24 on cells [5], ~0.3 µg/mL with human CD24 on cells [6], ~0.2 µg/mL with human CD24 on cells [8] and ~0.2 µg/mL with human CD24 on cells [11]. Besides, the “EC50 of macrophage mediated phagocytosis against multiple tumor cells” value with human CD24 on cells [9] was in the range of 1.97 to 2.45 nM.

B5: 4451H-IgG4 (antibody, V domains shown)
VH: B4 VH with G35N, Y59T
VL: DIQLTQSPSFLSASVGDRVTITCRASKSISKYLAWYQQKPGKAPKLLIYAGSTLHSGIPSRFRGSGSGTEFTLTISSLQPEDFATYYCQQHNEYPITFGQGTKLEIK
notes: also called VH1+VL3 fused with human IgG4 Fc
For B5, the “EC50 (read off the curve)” value is ~0.3 µg/mL in the test with human CD24 on cells [12]; ~0.2 µg/mL in the test with human CD24 on cells [13]; ~0.02 µg/mL with CD24-his protein [14]; ~0.06 µg/mL with CD24-his-GST(Ecoli); ~0.2 µg/mL with human CD24 on cells [16]; ~0.2 µg/mL with human CD24 on cells [17]. Besides, the “IC50 (read off the curve)” value with human CD24 on cells [15] was ~1 µg/mL. Further, binding with Human CD24 was put at a Kd of 15.5 nM. Besides, in the test with Human CD24, the koff – broadly, a measure of how fast the partners let go of each other – came to 0.0175 s⁻¹. Moreover, the on-rate (kon) (as a rule, the second-order rate constant of association) in the test with Human CD24 was found to be 1.13e+06 M⁻¹ s⁻¹.

B6: 4451HM15-IgG4 (antibody, V domains shown)
VH: B4 VH
VL: B5 VL with K27A
notes: IgG4; also called IgG4 isoform of 4451HM15
On to B6, for which, in the test with CD24-his protein [18], the “IC50 (read off the curve)” value is ~1 µg/mL.
